Molecular target: recombinant full-length hemagglutinin H6 (A/Taiwan/2/2013) (Influenza A virus A/Taiwan/2/2013 (H6N1), strain)
Test: BLI
Details: both partners purified

B1: 3I14 IgG1 (wild type) (antibody, V domains shown)
VH: QVQLLESGGGVVQPGRSLRLSCAASGFTFSNYGMHWVRQAPGKGLEWVAIISFDGSKKYYANSVKGRSTISRDNSKNTLSLQMNSLGPEDTALYYCAKLPSPYYFDSRFVWVAASAFHFWGQGILVTVSS
VL: NFMLTQPPSASGTPGQRVTISCSGSSSNIGGNTVHWFQQLPGTAPKLLIYTNSLRPSGVPDRFSGSKSGTSASLAISGLQSEDEADYYCAAWDDSLNGQVFGGGTKLTVL
notes: copies: 2 + 2
B1 was tested, and the Kd was 2.9 nM, the koff was 0.000152 s⁻¹ and the kon was 51900 M⁻¹ s⁻¹.
